According to US11292821B2, “Peptides and combination of peptides for use in immunotherapy against lung cancer, including NSCLC, SCLC and other cancers” (Immatics Biotechnologies GmbH, priority 2017, dated 2022):

Key:
HLA-A*02 = HLA-A*02 (Homo sapiens, UniProt P04439, D140Y/D185E/D98H/E176V/E277Q/G131W/G231S/I119V/I121R/I166T/I218V/N151K/N90K/P208A/P217A/Q86G/Q94H/R138H/R169H); test: MHC binding assay (UV-ligand exchange, β2m ELISA)
CD8+ T cells = test: In vitro T-cell priming assay with aAPCs (in vitro immunogenicity for MHC class I presented peptides); type: cell-based, human; conditions: in vitro immunogenicity
HLA-B*44 = test: MHC binding assay (UV-ligand exchange, β2m ELISA); set-up: species or system human; conditions: UV-ligand exchange, β2m ELISA

| Substance | Peptide exchange (peptide exchange yield, MHC class I binding score) (HLA-A*02) | Peptide exchange (peptide exchange yield, MHC class I binding score) (HLA-B*44) | Wells positive [%] (CD8+ T cells; HLA A*02) | Wells positive [%] (CD8+ T cells; HLA B*44) |
| --- | --- | --- | --- | --- |
| 84 (YVDINTFRL; listed as Homo sapiens) [compound 84] | “++++” (>75% = ++++) | – | “+” (<20% = +) | – |
| 85 (YIDEFQSLV; listed as Homo sapiens) [compound 85] | “++++” (>75% = ++++) | – | “++” (20%-49% = ++) | – |
| 86 (FVIDGFDEL; listed as Homo sapiens) [compound 86] | “++++” (>75% = ++++) | – | – | – |
| 87 (TLYPYQISQL; listed as Homo sapiens) [compound 87] | “++++” (>75% = ++++) | – | “++” (20%-49% = ++) | – |
| 88 (VQMVITEAQKV; listed as Homo sapiens) [compound 88] | “++++” (>75% = ++++) | – | “++” (20%-49% = ++) | – |
| 89 (ILSTTMVTV; listed as Homo sapiens) [compound 89] | “++++” (>75% = ++++) | – | “+++” (50%-69% = +++) | – |
| 91 (FALPGLLHA; listed as Homo sapiens) [compound 91] | “+++” (>50 = +++) | – | – | – |
| 92 (NLRDLLSEV; listed as Homo sapiens) [compound 92] | “+++” (>50 = +++) | – | – | – |
| 93 (TLQEKILQV; listed as Homo sapiens) [compound 93] | “++++” (>75% = ++++) | – | “+” (<20% = +) | – |
| 94 (VLPDIETLIGV; listed as Homo sapiens) [compound 94] | “++++” (>75% = ++++) | – | “+++” (50%-69% = +++) | – |
| 95 (ITIGVLARV; listed as Homo sapiens) [compound 95] | “++++” (>75% = ++++) | – | “++++” (>=70% = ++++) | – |
| 96 (HLVGGLHTV; listed as Homo sapiens) [compound 96] | “++++” (>75% = ++++) | – | “+++” (50%-69% = +++) | – |
| 97 (VLALVNSTV; listed as Homo sapiens) [compound 97] | “++++” (>75% = ++++) | – | “+++” (50%-69% = +++) | – |
| 98 (LQSSGLTLLL; listed as Homo sapiens) [compound 98] | “++++” (>75% = ++++) | – | – | – |
| 99 (FLKEKVPGI; listed as Homo sapiens) [compound 99] | “++++” (>75% = ++++) | – | – | – |
| 100 (RQYPTPFQL; listed as Homo sapiens) [compound 100] | “++++” (>75% = ++++) | – | – | – |
| 101 (FIISDWRFVL; listed as Homo sapiens) [compound 101] | “+++” (>50 = +++) | – | “+” (<20% = +) | – |
| 102 (SLLEQAIAL; listed as Homo sapiens) [compound 102] | “++++” (>75% = ++++) | – | – | – |
| 103 (FLYYPDPVL; listed as Homo sapiens) [compound 103] | “++++” (>75% = ++++) | – | – | – |
| 104 (GMLDIFWGV; listed as Homo sapiens) [compound 104] | “++++” (>75% = ++++) | – | – | – |
| 105 (SLLTHIPTA; listed as Homo sapiens) [compound 105] | “++++” (>75% = ++++) | – | – | – |

| Substance | Peptide exchange (peptide exchange yield, MHC class I binding score) (HLA-A*02) | Peptide exchange (peptide exchange yield, MHC class I binding score) (HLA-B*44) | Wells positive [%] (CD8+ T cells; HLA A*02) | Wells positive [%] (CD8+ T cells; HLA B*44) |
| --- | --- | --- | --- | --- |
| 106 (FIIDTTYPAYV; listed as Homo sapiens) [compound 106] | “++++” (>75% = ++++) | – | – | – |
| 107 (LLQGAIESV; listed as Homo sapiens) [compound 107] | “++++” (>75% = ++++) | – | – | – |
| 109 (LLLGSIGLLGV; listed as Homo sapiens) [compound 109] | “++++” (>75% = ++++) | – | – | – |
| 110 (LLADFQALL; listed as Homo sapiens) [compound 110] | “++++” (>75% = ++++) | – | – | – |
| 111 (ALCLLLHLL; listed as Homo sapiens) [compound 111] | “+” (>10% = +) | – | – | – |
| 112 (SVSDGIHSV; listed as Homo sapiens) [compound 112] | “++++” (>75% = ++++) | – | – | – |
| 113 (AVLTGLVEV; listed as Homo sapiens) [compound 113] | “++++” (>75% = ++++) | – | – | – |
| 114 (ILDERQVLL; listed as Homo sapiens) [compound 114] | “++++” (>75% = ++++) | – | – | – |
| 115 (MLLETQDALYV; listed as Homo sapiens) [compound 115] | “++++” (>75% = ++++) | – | – | – |
| 116 (VLMEENSKL; listed as Homo sapiens) [compound 116] | “++++” (>75% = ++++) | – | – | – |
| 117 (FLDPNARPLV; listed as Homo sapiens) [compound 117] | “++++” (>75% = ++++) | – | – | – |
| 118 (ALSSVLHSI; listed as Homo sapiens) [compound 118] | “++++” (>75% = ++++) | – | – | – |
| 119 (RTADITVTV; listed as Homo sapiens) [compound 119] | “++++” (>75% = ++++) | – | – | – |
| 120 (ALLANLPAV; listed as Homo sapiens) [compound 120] | “++++” (>75% = ++++) | – | – | – |
| 121 (ALVDTLTGI; listed as Homo sapiens) [compound 121] | “++++” (>75% = ++++) | – | – | – |
| 122 (ALLEMFPEITV; listed as Homo sapiens) [compound 122] | “++++” (>75% = ++++) | – | – | – |
| 123 (LMAFFLAVV; listed as Homo sapiens) [compound 123] | “++” (>20% = ++) | – | – | – |
| 124 (SVASVLLYL; listed as Homo sapiens) [compound 124] | “++++” (>75% = ++++) | – | – | – |
| 125 (VLQPFLPSI; listed as Homo sapiens) [compound 125] | “++++” (>75% = ++++) | – | “++++” (>=70% = ++++) | – |
| 126 (FLSTVTSV; listed as Homo sapiens) [compound 126] | “++++” (>75% = ++++) | – | – | – |

The next lines start with results.

| Peptide exchange (peptide exchange yield, MHC class I binding score) (HLA-A*02) | Peptide exchange (peptide exchange yield, MHC class I binding score) (HLA-B*44) | Substance | Wells positive [%] (CD8+ T cells; HLA A*02) | Wells positive [%] (CD8+ T cells; HLA B*44) |
| --- | --- | --- | --- | --- |
| “++++” (>75% = ++++) | – | 127 (GLDGSLVFL; listed as Homo sapiens) [compound 127] | “++” (20%-49% = ++) | – |
| “++++” (>75% = ++++) | – | 128 (FLGTTPTL; listed as Homo sapiens) [compound 128] | “+” (<20% = +) | – |
| “++++” (>75% = ++++) | – | 129 (VLYDKDAVYV; listed as Homo sapiens) [compound 129] | “++” (20%-49% = ++) | – |
| “++++” (>75% = ++++) | – | 130 (NLWGGQGLLGV; listed as Homo sapiens) [compound 130] | “+” (<20% = +) | – |
| “++++” (>75% = ++++) | – | 131 (LLKEFVQRV; listed as Homo sapiens) [compound 131] | “++++” (>=70% = ++++) | – |
| “++++” (>75% = ++++) | – | 132 (ALWLVDPLTV; listed as Homo sapiens) [compound 132] | “+++” (50%-69% = +++) | – |
| – | “+++” (>50 =+++) | 333 (AETLSTIQI; listed as Homo sapiens) [compound 333] | – | “+” (<20% = +) |
| – | “++” (>20% = ++) | 334 (AEDEPAAAHL; listed as Homo sapiens) [compound 334] | – | “+” (<20% = +) |
| – | “++++” (>75% = ++++) | 337 (TENRYCVQL; listed as Homo sapiens) [compound 337] | – | “++” (20%-49% = ++) |
| – | “+++” (>50 =+++) | 338 (SEGSEPALLHSW; listed as Homo sapiens) [compound 338] | – | “+” (<20% = +) |
| – | “+++” (>50 =+++) | 339 (SEPALLHSW; listed as Homo sapiens) [compound 339] | – | “++” (20%-49% = ++) |
| – | “+++” (>50 =+++) | 342 (HEFSSPSHL; listed as Homo sapiens) [compound 342] | – | “+” (<20% = +) |
| “++++” (>75% = ++++) | – | 388 (FSIPEGALVAV; listed as Homo sapiens) [compound 388] | – | – |
| “++++” (>75% = ++++) | – | 389 (TLMEQPLTTL; listed as Homo sapiens) [compound 389] | – | – |
| “++++” (>75% = ++++) | – | 390 (HIMPTVHTV; listed as Homo sapiens) [compound 390] | – | – |
| “++++” (>75% = ++++) | – | 391 (SLIDMRGIETV; listed as Homo sapiens) [compound 391] | – | – |
| – | “++” (>20% = ++) | 476 (AEEEIMKKI; listed as Homo sapiens) [compound 476] | – | “+” (<20% = +) |
| – | “+++” (>50 =+++) | 477 (QENSYQSRL; listed as Homo sapiens) [compound 477] | – | “+” (<20% = +) |
